Blank lines part the entries; values can stand above or below the molecule they belong to.
How the values were obtained:
CD spectroscopy = type: physicochemical; details: 20°C, 20 mM potassium phosphate pH 7.5, 0.5 mM DTT, SELCON3, 0.29, 0.14 and 0.086 mg/ml
Experimental: (§1) All CD spectra were recorded on a Chirascan CD spectrometer (Applied Photophysics) in quartz cuvettes with a 0.1 cm path length. Data were recorded at 20°C between 260 - 180 nm in 1 nm increments and a 2 nm bandwidth over an average of two scans. The KLC2^TPR-myc and Trp-JIP3^LZ proteins were dialysed extensively into 20 mM potassium phosphate pH 7.5, 0.5 mM DTT. Spectra were collected from KLC2^TPR-myc samples at concentrations of 0.29, 0.14 and 0.086 mg/ml. Trp-JIP3^LZ spectra were collected at 0.15, 0.074 and 0.044 mg/ml. One spectrum was recorded for each sample at each concentration and background-corrected by subtraction of a buffer-only spectrum. Corrected spectra were converted to units of mean residue ellipticity and deconvolved using the Dichroweb server ([Whitmore and Wallace, 2008]). KLC2^TPR-myc and Trp-JIP3^LZ spectra were analysed using the SELCON3 and CONTIN algorithms, respectively, using reference dataset set 4 ([Sreerama et al., 1999], [van Stokkum et al., 1990]). For each protein, the mean percentage of each secondary structure type, and the corresponding standard deviation, was calculated from the values obtained from the three concentrations. The secondary structure content for KLC2^TPR-myc and Trp-JIP3^LZ were calculated using the KLC2^TPR:JIP3^LZ crystal structure using the STRIDE server (http://webclu.bio.wzw.tum.de/cgi-bin/stride/stridecgi.py) ([Frishman and Argos, 1995]).

[1] = Secondary structure content calculated from the KLC2^TPR:JIP3^LZ crystal structure (STRIDE)
Experimental: as §1, with “Corrected spectra were converted to units of mean residue ellipticity and deconvolved using the Dichroweb server ([Whitmore and Wallace, 2008]).” left out

SEC-MALLS = type: physicochemical; details: 25 mM HEPES pH 7.5, 0.1 M NaCl, 1 mM TCEP
Experimental: Fifty microliters of JIP3^LZ was injected onto a WTC-030S5 column, pre-equilibrated with buffer containing 25 mM HEPES pH 7.5, 0.1 M NaCl and 1 mM TCEP at a flow rate of 1 ml/min. Data were recorded using a DAWN 8+ multi-angle light scattering (LS) detector, an Optilab T-rEX differential refractive index (dRI) detector and UV absorbance (UV) detector (Wyatt Technology) and analyzed with the Astra 6.2 software package provided by the manufacturer (Wyatt Technology).

KLC2^TPR = assay: ITC of KLC2^TPR binding to GST3C-JIP3^LZ, two-stage sequential model; parameters: species or system murine; details: for K, macroscopic association constant / ΔH / –TΔS: ITC, 25°C, 0.5 M NaCl, pH 7.5, globally fitted over four experiments; for K, macroscopic association constant: 25 mM HEPES, 5 mM MgCl2, 1 mM TCEP
Experimental: For ITC studies with the KLC2^TPR and GST-JIP3^LZ, the high KLC2^TPR concentrations required to use this protein as titrant necessitated a higher salt concentration than that used for crystallographic studies. The KLC2^TPR was prepared as above for crystallographic studies but the final size exclusion chromatography step was performed in 500 mM NaCl, 25 mM HEPES, 5mM MgCl2, 1 mM TCEP (final pH 7.5). The GST-JIP3^LZ protein was bound to glutathione sepharose resin in batch as described above for the JIP3^LZ. The GST-JIP3^LZ protein was eluted in 0.25 M NaCl, 50 mM TRIS.HCl, 1 mM TCEP, 25 mM glutathione; final pH 7.5, and purified by size exclusion chromatography on a Superdex 200 16/600 column (GE Healthcare) equilibrated in 500 mM NaCl, 25 mM HEPES, 5mM MgCl2 and 1 mM TCEP (final pH 7.5).
To study the binding of the KLC2^TPR to GST3C-JIP3^LZ, the proteins were prepared by size exclusion chromatography in 0.5 M NaCl, 25 mM HEPES, 5 mM MgCl2, 1 mM TCEP, final pH 7.5. ITC measurements were performed on a MicroCal iTC200 calorimeter (Malvern) at 25°C, with a differential power of 5.0 μcal/s and stirring at 750 rpm. Experiments consisted of an initial sacrificial 0.5 μl injection, followed 120 s later by 19 injections of 2 μl spread over 4 s, spaced 120 s apart. Thermograms were integrated and corrected for heats of dilution using NITPIC (http://biophysics.swmed.edu/MBR/software.html). The resulting isotherms were analysed in SEDPHAT (http://www.analyticalultracentrifugation.com/sedphat/) ([Keller et al., 2012], [Zhao et al., 2015]). The isotherms from these experiments were globally fitted with the A + B + B → AB + B → ABB model. […] Figures were prepared using GUSSI (http://biophysics.swmed.edu/MBR/software.html).

[2] = stage A + B + B → BA + B (first KLC2^TPR)
[3] = stage BA + B → BAB (second KLC2^TPR)

B1: KLC2^TPR-myc: murine KLC2 residues 191-480 with … fused to the C-terminus (protein)
chain: GYEIPARLRTLHNLVIQYASQGRYEVAVPLCKQALEDLEKTSGHDHPDVATMLNILALVYRDQNKYKDAAHLLNDALAIREKTLGKDHPAVAATLNNLAVLYGKRGKYKEAEPLCKRALEIREKVLGKFHPDVAKQLSNLALLCQNQGKAEEVEYYYRRALEIYATRLGPDDPNVAKTKNNLASCYLKQGKYQDAETLYKEILTRAHEKEFGSVNGENKPIWMHAEEREESKDKRRDRRPMEYGSWYKACKVDSPTVNTTLRTLGALYRPEGKLEAAHTLEDCASRSRKQ
modifications: left off: His6-SUMO, N-terminal, cleaved | myc (…), C-terminal, kept
secondary structure content by CD versus crystal structure (CD spectroscopy): very similar to that calculated from the KLC2^TPR:JIP3^LZ crystal structure

B2: JIP3^LZ: JIP3 leucine zipper domain, residues 417-487 of murine JIP3 isoform A (protein)
chain: WMGKEVGNLLLENSQLLETKNALNVVKNDLIAKVDQLSGEQEVLKGELEAAKQAKVKLENRIKELEEELKRV
modifications: left off: GST, N-terminal, cleaved
notes: JIP3 leucine zipper domain, residues 417-487 of murine JIP3 isoform A
α-helical content calculated from crystal structure [1]: 77% | oligomeric state in solution (SEC-MALLS): stable dimer

thermodynamic driving force (KLC2^TPR; binding of the first KLC2^TPR): enthalpically driven | thermodynamic driving force (KLC2^TPR; binding of the second KLC2^TPR): entropically driven | K, macroscopic association constant (KLC2^TPR; [2]): 0.1317 µM⁻¹ | ΔH (KLC2^TPR; [2]): -18.756 kcal/mol | –TΔS (KLC2^TPR; [2]): 11.772 kcal/mol | K, macroscopic association constant (KLC2^TPR; [3]): 0.1315 µM⁻¹ | ΔH (KLC2^TPR; [3]): 0.952 kcal/mol | –TΔS (KLC2^TPR; [3]): -7.935 kcal/mol | cooperativity of binding of two KLC2^TPR subunits (KLC2^TPR; suggested by very similar macroscopic association constants): positive cooperativity
B3: GST-JIP3^LZ: GST and 3C site fused to murine JIP3 isoform A leucine zipper, residues 417-487 (protein, UniProt Q9ESN9 417-487, looked up, fragment)
chain: MGKEVGNLLLENSQLLETKNALNVVKNDLIAKVDQLSGEQEVLKGELEAAKQAKVKLENRIKELEEELKRV
modifications: isoform A N-terminal GST tag, 3C site

Reference: article PMC6224480, “Insights into Kinesin-1 Activation from the Crystal Structure of KLC2 Bound to JIP3” (Structure(London, England:1993), 2018)
